Reference: publication PMC7695343

Target: integrin αvβ5 on human colon adenocarcinoma HT-29 cells (human (endogenous in HT-29)) (UniProt P06756)
Sequence of UniProt P06756 (P06756 31-1048, chain 1 of 2): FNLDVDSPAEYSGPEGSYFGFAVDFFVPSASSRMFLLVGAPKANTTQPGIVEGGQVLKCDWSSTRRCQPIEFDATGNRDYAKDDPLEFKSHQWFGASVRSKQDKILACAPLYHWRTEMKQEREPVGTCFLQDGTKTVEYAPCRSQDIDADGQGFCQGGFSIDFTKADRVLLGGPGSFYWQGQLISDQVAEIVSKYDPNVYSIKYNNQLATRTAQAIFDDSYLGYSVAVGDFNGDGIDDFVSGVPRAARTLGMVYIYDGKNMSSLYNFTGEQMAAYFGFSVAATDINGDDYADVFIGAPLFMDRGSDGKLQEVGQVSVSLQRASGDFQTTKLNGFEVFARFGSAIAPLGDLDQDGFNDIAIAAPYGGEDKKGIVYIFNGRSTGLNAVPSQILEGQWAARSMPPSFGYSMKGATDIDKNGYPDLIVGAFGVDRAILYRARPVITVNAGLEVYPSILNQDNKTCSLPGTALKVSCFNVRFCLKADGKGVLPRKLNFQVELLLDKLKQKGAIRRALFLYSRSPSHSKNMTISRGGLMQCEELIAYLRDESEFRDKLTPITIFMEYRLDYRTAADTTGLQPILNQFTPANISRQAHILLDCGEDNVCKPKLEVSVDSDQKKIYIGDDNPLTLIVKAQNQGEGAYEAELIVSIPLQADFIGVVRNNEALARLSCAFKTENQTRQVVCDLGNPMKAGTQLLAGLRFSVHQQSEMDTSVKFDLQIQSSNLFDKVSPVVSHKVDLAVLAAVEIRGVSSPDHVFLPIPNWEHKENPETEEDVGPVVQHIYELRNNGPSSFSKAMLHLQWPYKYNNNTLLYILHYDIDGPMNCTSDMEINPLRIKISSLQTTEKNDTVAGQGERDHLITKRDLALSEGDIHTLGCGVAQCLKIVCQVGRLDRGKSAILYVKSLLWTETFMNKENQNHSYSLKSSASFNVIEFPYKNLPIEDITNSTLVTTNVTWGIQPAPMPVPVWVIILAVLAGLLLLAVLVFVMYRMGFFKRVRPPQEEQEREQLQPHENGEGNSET
Sequence of UniProt P06756 (P18084 24-799, chain 2 of 2, further chain): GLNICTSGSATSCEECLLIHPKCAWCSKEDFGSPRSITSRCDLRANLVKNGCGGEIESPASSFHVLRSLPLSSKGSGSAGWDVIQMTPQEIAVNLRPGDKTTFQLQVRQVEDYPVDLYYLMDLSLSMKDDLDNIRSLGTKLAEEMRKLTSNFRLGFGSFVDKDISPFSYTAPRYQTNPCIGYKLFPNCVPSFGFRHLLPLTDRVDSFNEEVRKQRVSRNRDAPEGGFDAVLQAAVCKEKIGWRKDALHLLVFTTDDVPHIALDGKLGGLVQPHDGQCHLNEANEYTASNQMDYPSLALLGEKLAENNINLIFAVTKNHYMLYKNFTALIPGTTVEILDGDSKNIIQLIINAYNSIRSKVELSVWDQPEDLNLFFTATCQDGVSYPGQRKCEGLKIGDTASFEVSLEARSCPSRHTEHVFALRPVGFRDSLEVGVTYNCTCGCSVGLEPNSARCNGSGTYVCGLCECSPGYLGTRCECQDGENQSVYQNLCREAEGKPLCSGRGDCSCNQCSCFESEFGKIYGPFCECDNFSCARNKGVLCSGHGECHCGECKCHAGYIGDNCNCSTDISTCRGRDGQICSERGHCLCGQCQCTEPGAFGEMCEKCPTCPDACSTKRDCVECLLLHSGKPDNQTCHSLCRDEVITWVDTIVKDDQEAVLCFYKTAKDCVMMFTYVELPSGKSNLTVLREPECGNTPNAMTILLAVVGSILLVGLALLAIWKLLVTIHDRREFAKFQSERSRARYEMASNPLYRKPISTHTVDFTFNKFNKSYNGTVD

## Echistatin (Ech), recombinant wild type with 6xHis-tag (natural protein)
  IC50 of inhibition of HT29 cell adhesion to immobilized vitronectin (blocks αvβ5 with vitronectin): 286 nM
